Measured values reported in patent publication US12612465B2, “Formulations comprising PCSK9 specific monoclonal antibodies” (Amgen Inc., priority 2012, dated 2026).
Marks after values point to notes of the source that are not given here.

Columns and labels:
[1] = molecular target: T1, PCSK9 (Homo sapiens, UniProt Q8NBP7); experiment: Phase 1 ascending single dose study in healthy subjects; type: in vivo
T1 construct: endogenous in cells; host or cells: human subjects, in vivo

[2] = Osmolality of 21B12 formulations; type: physicochemical
Excerpt: In certain embodiments, the pharmaceutical formulation is isotonic with an osmolality ranging from between about 250 to about 350 miliosmol/kg, e.g., about 250 mOsm/kg, about 260 mOsm/kg, about 270 mOsm/kg, about 280 mOsm/kg, about 290 mOsm/kg, about 300 mOsm/kg, about 310 mOsm/kg, about 320 mOsm/kg, about 330 mOsm/kg, about 340 mOsm/kg, or about 350 mOsm/kg, and including all values in between. As used herein, “osmolality” is the measure of the ratio of solutes to volume fluid. In other words, it is the number of molecules and ions (or molecules) per kilogram of a solution. Osmolality may be measured on an analytical instrument called an osmometer, such as Advanced Instruments 2020 Multi-sample Osmometer, Norwood, Mass. The Advanced Instruments 2020 Multi-sample Osmometer measures osmolality by using the Freezing Point Depression method. The higher the osmolytes in a solution, the temperature in which it will freeze drops. Osmolality may also be measured using any other methods and in any other units known in the art such as linear extrapolation.

[3] = molecular target: T1, PCSK9; experiment: Aggregate data of the studies of Examples 22-25; type: in vivo
[4] = molecular target: T1, PCSK9; experiment: 12 week monotherapy dose-ranging study, Framingham risk 10% or less (Example 24); type: in vivo; conditions: for Treatment difference vs ezetimibe in LDL-C percent change, week 12 / Treatment difference vs placebo in LDL-C percent change, week 12: P < 0.001; for mean percent reduction from baseline in LDL-C: monotherapy, preliminary
Method: Ezetimibe was not blinded. The end-of-study visit and the last estimation of lipids was at week 12 for subjects on Q4W IP schedule or on ezetimibe and week 14 for subjects on Q2W IP schedule.
Males and females, ≥18 to ≤75 years of age, were eligible for this study. Fasting LDL-C was ≥100 mg/dL (2.6 mmol/L) and ≤190 mg/dL (4.9 mmol/L) and fasting triglycerides ≤400 mg/dL (4.5 mmol/L) by central laboratory at screening.
The primary endpoint was the percent change from baseline in LDL-C at week 12. Secondary endpoints included percent changes in apolipoprotein B (ApoB), lipoprotein (a) (Lp(a)), and in the ratio of total cholesterol to high-density lipoprotein (HDL)-C. Tolerability and safety were also evaluated.

T1 sequence (Q8NBP7 153-692): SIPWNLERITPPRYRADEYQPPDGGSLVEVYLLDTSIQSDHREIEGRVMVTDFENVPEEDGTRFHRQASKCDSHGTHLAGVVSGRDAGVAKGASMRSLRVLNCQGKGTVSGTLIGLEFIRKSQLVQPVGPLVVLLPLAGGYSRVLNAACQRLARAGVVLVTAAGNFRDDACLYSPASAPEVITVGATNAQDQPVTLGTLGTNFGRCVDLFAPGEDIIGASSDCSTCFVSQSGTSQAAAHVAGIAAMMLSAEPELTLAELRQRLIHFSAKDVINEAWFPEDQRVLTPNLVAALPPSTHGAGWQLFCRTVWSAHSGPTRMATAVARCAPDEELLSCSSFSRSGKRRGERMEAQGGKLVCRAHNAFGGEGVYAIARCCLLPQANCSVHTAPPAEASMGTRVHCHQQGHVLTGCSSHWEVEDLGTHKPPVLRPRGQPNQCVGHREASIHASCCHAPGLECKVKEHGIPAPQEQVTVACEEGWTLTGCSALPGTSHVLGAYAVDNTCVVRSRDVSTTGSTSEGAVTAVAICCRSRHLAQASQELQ

B1: 21B12: human anti-PCSK9 monoclonal antibody, light/heavy variable region SEQ ID NO 23/49 (antibody, listed as Homo sapiens, V domains shown)
VH: QVQLVQSGAEVKKPGASVKVSCKASGYTLTSYGISWVRQAPGQGLEWMGWVSFYNGNTNYAQKLQGRGTMTTDPSTSTAYMELRSLRSDDTAVYYCARGYGMDVWGQGTTVTVSS
VL: QSALTQPASVSGSPGQSITISCTGTSSDVGGYNSVSWYQQHPGKAPKLMIYEVSNRPSGVSNRFSGSKSGNTASLTISGLQAEDEADYYCNSYTSTSMVFGGGTKLTVL
- median AUC0-inf ([1]; 420 mg IV): 1550 µg·days/mL
- median maximum observed concentration (Cmax) ([1]; 420 mg IV): 139 µg/mL
- anti-21B12 antibodies in serum ([1]; all 42 subjects who received 21B12): negative for anti-21B12 antibodies
- subjects with treatment-emergent adverse events ([1]; any dose, 29 of 42 subjects): 69%
- effects on laboratory variables, ECGs, vital signs ([1]; human, in vivo): no trends indicative of clinically important effects
- LDL-C nadir observed after dosing ([1]; single dose, healthy subjects): ≤ 2 weeks
- suppression of PCSK9 ([1]; single doses ≥70 mg SC): Complete suppression of PCSK9
- Osmolality ([2]; 73 mg/mL, 10 mM Na acetate, pH 5.2 +3% proline): 253 mOsmol/kg
- Osmolality ([2]; 76 mg/mL, 10 mM Na acetate, pH 5.2): 53 mOsmol/kg
- Osmolality ([2]; 116 mg/mL, 10 mM sodium acetate, pH 4.8, 50 mM methionine + 2% benzyl alcohol): 329 mOsmol/kg
- Osmolality ([2]; 116 mg/mL, 10 mM sodium acetate, pH 4.8, 150 mM arginine): 241 mOsmol/kg
- Osmolality ([2]; 116 mg/mL, 10 mM sodium acetate, pH 4.8, 1.5% proline + 1% benzyl alcohol): 277 mOsmol/kg
- Osmolality ([2]; 116 mg/mL, 10 mM sodium acetate, pH 4.8, 2% proline + 1% benzyl alcohol): 313 mOsmol/kg
- Osmolality ([2]; 116 mg/mL, 10 mM sodium acetate, pH 4.8, no excipient): 72 mOsmol/kg
- Osmolality ([2]; 117 mg/mL, 10 mM Na acetate, pH 4.5): 59 mOsmol/kg
- Osmolality ([2]; 122 mg/mL, 10 mM Na acetate, pH 5.2 +3% proline): 274 mOsmol/kg
- Osmolality ([2]; 130 mg/mL, 10 mM Na acetate, pH 5): 59 mOsmol/kg
- Osmolality ([2]; 148 mg/mL, 10 mM Na acetate, pH 5.2 +3% proline): 301 mOsmol/kg
- Osmolality ([2]; 154 mg/mL, 10 mM Na acetate, pH 5.2): Did not freeze
- Osmolality ([2]; […], 10 mM Na acetate, pH 4): 59 mOsmol/kg
- Osmolality ([2]; […], 10 mM Na acetate, pH 5.2 +150 mM NaCl): 346 mOsmol/kg
- Osmolality ([2]; […], 10 mM Na acetate, pH 5.2 +3% proline): 252 mOsmol/kg
- Osmolality ([2]; […], 10 mM Na acetate, pH 5.5): 64 mOsmol/kg
- Osmolality ([2]; […], 10 mM Na acetate, pH 5.5 +150 Mm methionine and 3% benzyl alcohol): 520 mOsmol/kg
- reduction from baseline in LDL-C at week 12 ([3]; 140 mg Q2W): ~60%
- reduction from baseline in LDL-C at week 12 ([3]; 420 mg Q4W): ~56%
- dose dependent reduction from baseline in ApoB ([3]; p values<0.001): 36-53%
- dose dependent reduction from baseline in non-HDL-C ([3]; p values<0.001): 36-53%
- dose dependent reduction from baseline in total cholesterol ([3]; p values<0.001): 25-37%
- Least squares mean percent change from baseline in LDL-C, week 12 ([4]; 70 mg Q2W SC (N = 45)): −40.98%
- Treatment difference vs ezetimibe in LDL-C percent change, week 12 ([4]; 70 mg Q2W SC): −26.73* %
- Treatment difference vs placebo in LDL-C percent change, week 12 ([4]; 70 mg Q2W SC): −37.27* %
- mean percent reduction from baseline in LDL-C ([4]; 70 mg Q2W SC, end of dosing interval): 41.21%
- Least squares mean percent change from baseline in LDL-C, week 12 ([4]; 105 mg Q2W SC (N = 46)): −43.87%
- Treatment difference vs ezetimibe in LDL-C percent change, week 12 ([4]; 105 mg Q2W SC): −29.62* %
- Treatment difference vs placebo in LDL-C percent change, week 12 ([4]; 105 mg Q2W SC): −40.17* %
- mean percent reduction from baseline in LDL-C ([4]; 105 mg Q2W SC, end of dosing interval): 45.44%
- Least squares mean percent change from baseline in LDL-C, week 12 ([4]; 140 mg Q2W SC (N = 45)): −50.93%
- Treatment difference vs ezetimibe in LDL-C percent change, week 12 ([4]; 140 mg Q2W SC): −36.68* %
- Treatment difference vs placebo in LDL-C percent change, week 12 ([4]; 140 mg Q2W SC): −47.23* %
- mean percent reduction from baseline in LDL-C ([4]; 140 mg Q2W SC): 51.56%
- Least squares mean percent change from baseline in LDL-C, week 12 ([4]; 280 mg Q4W SC (N = 45)): −39.02%
- Treatment difference vs ezetimibe in LDL-C percent change, week 12 ([4]; 280 mg Q4W SC): −25.17* %
- Treatment difference vs placebo in LDL-C percent change, week 12 ([4]; 280 mg Q4W SC): −43.57* %
- mean percent reduction from baseline in LDL-C ([4]; 280 mg Q4W SC, end of dosing interval): 37.53%
- Least squares mean percent change from baseline in LDL-C, week 12 ([4]; 350 mg Q4W SC (N = 45)): −43.20%
- Treatment difference vs ezetimibe in LDL-C percent change, week 12 ([4]; 350 mg Q4W SC): −29.34* %
- Treatment difference vs placebo in LDL-C percent change, week 12 ([4]; 350 mg Q4W SC): −47.74* %
- mean percent reduction from baseline in LDL-C ([4]; 350 mg Q4W SC, end of dosing interval): 42.16%
- Least squares mean percent change from baseline in LDL-C, week 12 ([4]; 420 mg Q4W SC (N = 45)): −47.98%
- Treatment difference vs ezetimibe in LDL-C percent change, week 12 ([4]; 420 mg Q4W SC): −34.14* %
- Treatment difference vs placebo in LDL-C percent change, week 12 ([4]; 420 mg Q4W SC): −52.53* %
- mean percent reduction from baseline in LDL-C ([4]; 420 mg Q4W SC): 47.52%
- change in LDL-C from baseline to week 12 greater than with placebo ([4]; final data): up to 72 mg/dL
- mean reduction from baseline for ApoB ([4]; final data): up to 44%
- mean reduction from baseline for Lp(a) ([4]; final data): up to 29%
- LDL-C reductions from baseline greater than ezetimibe ([4]; week 12, final data): 37%
- least-squares (LS) mean percent reduction from baseline in LDL-C ([4]; week 12, final data, across dose regimens): up to 51%
